Measured values taken from publication PMC6298778, “A secretory pathway kinase regulates sarcoplasmic reticulum Ca^2+ homeostasis and protects against heart failure” (eLife, 2018).

Tests used:
[1] = biological target: calsequestrin 2 (CSQ2, CASQ2) 19-399 (UniProt O14958); experiment: Ca2+-dependent turbidity, absorbance at 350 nm; conditions: reference: CSQ2 treated in tandem without Fam20C; sites S385
[2] = biological target: the molecule itself; experiment: turbidity assay; 4.5 uM phosphorylated or unphosphorylated His-CASQ2, 10 mM Tris-HCl pH 7.0, 10% glycerol, CaCl2 at the concentrations indicated; 30 min at room temperature; absorbance at 350 nm

binding against the reference [1] | Molecule | binding result [2]
stronger | calsequestrin 2 (CSQ2, CASQ2) 19-399 (from UniProt O14958) CSQ2 phosphorylated in vitro by Fam20C | 
 | calsequestrin 2 (CSQ2), phosphorylated in vitro by Fam20C, His-tagged (natural protein, human, UniProt O14958 19-399, looked up, phosphoserine at 385 (phosphorylated in vitro by Fam20C; saturated phosphorylation >95%), also called phosphorylated CSQ2; phosphorylated His-CASQ2; source: E. coli BL21 (DE3)-RILP, purified (Ni-NTA), phosphorylated in vitro by Fam20C, then size exclusion chromatography; not shown: His6, C-terminal, kept) AEEGLNFPTYDGKDRVVSLSEKNFKQVLKKYDLLCLYYHEPVSSDKVTQKQFQLKEIVLELVAQVLEHKAIGFVMVDAKKEAKLAKKLGFDEEGSLYILKGDRTIEFDGEFAADVLVEFLLDLIEDPVEIISSKLEVQAFERIEDYIKLIGFFKSEDSEYYKAFEEAAEHFQPYIKFFATFDKGVAKKLSLKMNEVDFYEPFMDEPIAIPNKPYTEEELVEFVKEHQRPTLRRLRPEEMFETWEDDLNGIHIVAFAEKSDPDGYEFLEILKQVARDNTDNPDLSILWIDPDDFPLLVAYWEKTFKIDLFRPQIGVVNVTDADSVWMEIPDDDDLPTAEELEDWIEDVLSGKINTEDDDEDDDDDDNSDEEDNDDSDDDDDE | binds
 | calsequestrin 2 (CSQ2), unphosphorylated, His-tagged (natural protein, human, UniProt O14958 19-399, looked up, Control sample of the turbidity assay: same treatment as the phosphorylated protein but without Fam20C; also called CASQ2; His-CASQ2; source: E. coli BL21 (DE3)-RILP, purified (Ni-NTA, size exclusion chromatography); treated in tandem without Fam20C; not shown: His6, C-terminal, kept) AEEGLNFPTYDGKDRVVSLSEKNFKQVLKKYDLLCLYYHEPVSSDKVTQKQFQLKEIVLELVAQVLEHKAIGFVMVDAKKEAKLAKKLGFDEEGSLYILKGDRTIEFDGEFAADVLVEFLLDLIEDPVEIISSKLEVQAFERIEDYIKLIGFFKSEDSEYYKAFEEAAEHFQPYIKFFATFDKGVAKKLSLKMNEVDFYEPFMDEPIAIPNKPYTEEELVEFVKEHQRPTLRRLRPEEMFETWEDDLNGIHIVAFAEKSDPDGYEFLEILKQVARDNTDNPDLSILWIDPDDFPLLVAYWEKTFKIDLFRPQIGVVNVTDADSVWMEIPDDDDLPTAEELEDWIEDVLSGKINTEDDDEDDDDDDNSDEEDNDDSDDDDDE | binds
